# Experimental data reported in the supplement of paper PMC12636428.
# System: Saccharomyces cerevisiae
# Test: transcriptional activation domain activity (GFP:mCherry ratio, weighted mean of sorted bins, harmonized to initial dataset scale) (arbitrary fluorescence ratio units); higher = stronger transcriptional activation
# Conditions: beta-estradiol 1 µM; induction time 4 h
# Summary of the method: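 Protein tiles carrying barcodes and fused to an estradiol-inducible synthetic transcription factor were placed at the URA3 locus of yeast diploids with a GFP reporter. Following 4 hours at 30 °C in SC with 1 uM beta-estradiol, cells were sorted into 8 GFP:mCherry bins, barcodes were sequenced, and tiles with fewer than 50 reads were discarded. Activation activity is given as the read-weighted mean of bin median fluorescence, averaged across barcodes and linearly mapped to the initial dataset scale.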
row,Sequence,transcriptional activation domain activity
1,MGRDSSLPYFNSPSFWVAFFWSGAGLFFSFFTGFIYFPEQIFFPLFFFLFFED,58800
2,MGREHSAPLDSSSKQGAPRRTQRAQLPHNSLCRMGLKTNMKWTHSIRQDKRAE,35600
3,MGRELVLFIFFFFLFFFPFFFPLLLPLLLSSVRLVDIFLLKKYYLINLSLAYP,37400
4,MGRLGTLGLSQEQLDNLRYYKYAAVDRSQLTKYVLRHYWNWAITLFPTWIAPN,32100
5,MGRLLLLICFNTSGRLPFLLPLLLFFFFLLFFLYPPLHIFSFSFSLSPSNVPP,35200
6,MGRVGGLFIMEGCLCVYRLLLYPSSCVWVSDTRGWLWLWWLWWWVVVVVWGVC,44600
7,MGRVVGVGSFYVWICHFFYIFSFFFSPMMNWTGSGLVGCVMALLYFILSFSFS,46200
8,MGSCNLPFGHISLARGTLVLIRGWSFFLASQPPYGFIRWILFRSSFYFLCSWR,55900
9,MGSDPFGGLNLFSTALFPLYLYCLTLDPPNYSNWLIFLSQHFLFSGLFRVLCF,56600
10,MGSFLPFLFFSFCYTFVCYFFSIIALVVFVYFTLAVEFFFFFFGCLRCLLLWL,57600
11,MGSGDTFFYWKLFSFSLSLLTRFSPLYFGWPFLKTIPLFMYFFLCRVLPLFLM,53400
12,MGSGFCNGVFFYYLFFFFISLCVILSSFLLFFFSLPLFLGGLFFSTFLFLDAR,58900
13,MGSLLLFMGIDEGSFLCGFFFSIFFLLLAFFTSYGCFCDKFFFLLYLLLLLRK,44300
14,MGSNANKRREDGPKKEQLQKRVLHIRSVARSTKGGKIRSSSAIVVVGNGNGVG,42400
15,MGSQLPHLQLSDTDGAGPMKRRRPALACVECRRRKVKCDRKKPCSPCTRIKSL,69900
16,MGSTIVFSVVFIWFFLVSFQQLLPFPKGTFFLLFLFPFSLSLPESSCIIFLAF,51800
17,MGTLLFVFMYYGWAFFLDYFIWCFVVSLCFWYKVCLAVLLLAFDVYCHLWCMI,60200
18,MGTLLLVFMHYGWTFFLDCCLWWYMMSLGFWYKVCLPLLLLDFHVYCHLWYMI,53600
19,MGTLYPLVLPWFTGSYFLDIGIDFVFQKDTSYLGYILHTLHAPFLLSCLFLVL,65000
20,MGTTGWRTRAIPYGFVFFYFILVMSLFFSSPLLTTTAVFILFYLLFLFSCYSS,36000
21,MGVCGVFISFLAWGGCLVLLNVRLHLRGLIFSLSNLFYDTVHVTCIWFFLFRL,65300

row,Sequence,transcriptional activation domain activity
1,MGVCLCVALFAPFFSLFFFLSPAPYCSGKIWHLSILFLLYHCRRVLPLFILAC,49600
2,MGVFILFAFLFFLMFVLLHFFLLLSFFLLSSLMGVYFFPHSMITYMFSFGLRS,44100
3,MGVICIFICFAVGLSTIITNLLSWLLLFSIICLICAPIILFVEVPFLLRICPT,61400
4,MGVLFCVWSKFMGLHYSLVFFFVYPFSHCFSLLFPFFFFTIMSWYIVFYHTCF,70300
5,MGVLFFSFLPWSFRLFFSFFFYFGLFFFFEYDFVLFLVFCVLVIGPVWLLAGC,60200
6,MGVLFLLCPCLCVVPLFCIAMQWSIGLYLCLDQRFPVLYTYFFILFSSILFCS,48300
7,MGVLLFGFWVCCCTKLLFCHYCFFFFLFLHFFFLATVLYIVNCCMLLLVLLLG,67700
8,MGVLLVDFLTHWILFLFCSWFMLFSFGRFFGFSGSLLVRFLPDSDLLMFLVLL,70600
9,MGVLSFRFLFWSFFFLSVMFLFLFFVFLLGYWFWFWFWLLVWLLVGFCCLVFF,38500
10,MGVWFGMAVLFLFLHLGFFLFCYFICLLLDNSFFLSWPLETVRALQMGLQIGG,36700
11,MGVYLQKLGWGYRVWRFLFWMGLSLVSFLFFICCFSLSVHTCFFFFWLGRLGW,27300
12,MGWFTFAFWYPPHLLYFLFYLPPPPLFPSHSLEFFSFCICNLTMFILSTFFFA,50200
13,MGWGAFWRWLVGCSLVLYVFYPLLSYLRCFILVFRFVYIYLPLTDCFLLFISK,53300
14,MGWGGASGFSPVVGIFFFTGPLLLFLSTVFLWIQAQFFPMMVCGLFCVFWLSF,60500
15,MGWVHLIGRCLILPVHYVVPFFIFFYFAYTSILTTSIGLLGMDLSLRLVFLCS,51000
16,MGYCFFLYIYIPFTLLFSNTCRLVGVFLSFYICMIGYSLLWLPNLWLAFFLIN,37700
17,MGYGEQRGSFGGRGGRGGSRGGRGGFGGGDRFNQGPPSEVVVVGAFVSACEGE,52900
18,MGYQPLFLCFVLSSPCLLLFPVLHILQPASSFSLLCLELFVRWVTYLLLLFSS,71800
19,MGYYVVLLTELLISCLCSPSLLYSPFLLICDSFPCSRRVFKLAFILFYILIVT,43400
20,MHAFQAGRDMPLVRRRSGGCLESDGGGEERVLRCETEECMSKEGVVSVGAGAD,35500
21,MHASFIFLSSTSGVIHTYILYLDLVAYFLLSLGGFVLIIGFWRWGFCCFFLPS,69100

row,Sequence,transcriptional activation domain activity
1,MHCEGCIQVIYRCYCLLIFLFFYYVCLFCLYILGKQLGLVHVFFYKYWCFFIL,53100
2,MHCIVVSCSLFLWFVFCKYLIYFKNAFTDISVFLGFLFGWFLSLLFHLSIVFG,48500
3,MHCRDIMRFNEMELAKLRLLLGSNCQALRNTASLLSRNLACSKIIYLSVRLGE,21000
4,MHCSLPSGLSFGCQYALVHLLFVRRISIWGLLILQIFLGTRVFYHVFILRVVR,62700
5,MHCVLALSLGLLSRVIVFYGCSFRGKLHFMMFWEALYLLLIFMRMLWLLFFIT,51000
6,MHDAISFVLHLRLFAHVVGTSLSDGGPVFLALCMLPPLMRHFVSMSSNLWTTA,70700
7,MHDTWFPFLAIVLLFYPTILGPGTFSIYFPHSALPPYMSLHLYVHARFLLLLL,65800
8,MHEYARVALFGTVGVPLRVFISPAFLRALRSFAPHVIHLVDPILLRMQAHIAL,48700
9,MHFAVKVKMQFFFFPSLSFFSSVVFISPPPPFVFLWHMGFLACLLFRSLVVFF,57000
10,MHFAVKVKMQLFFFIFSLTLFFFLWYFFFFFPVVYGVFSSGVLGVFFSLFSFF,66200
11,MHFFSFFFLCFYFYFLSSLLGSMDYTALYFPFFFCSNYRRCYMCFLVEPFFFL,78500
12,MHFLNFLFYCVYYLPLNHTIFFYFVWLTLTLLFFFFLVVYIHISSISSFFYIC,56600
13,MHFVWLYHPFAKYGDFYLILSFTYLRTITDCCSCCIMTTYGMLRIFPIFVILV,79100
14,MHGTGVFFGCLGIHIFFFLSSLLFHVDIFVIRDIFFNFLLFFFIFFLRILYSM,42700
15,MHHELLRPILRLGHLMWTICFWMRRIMINAESPYRKTILHVRRSNWLFRRIIT,81600
16,MHILFLSLFFCFTLRFSLILLFGVIWLVKAFKYCHLVYWKLITYFNLLIFALY,54800
17,MHILVELAVFLICRCSQIWRTWVQGGKLAISHNKLVRPTFFRRLLHCIWLFRL,72200
18,MHITCPRLWGHCSWCVVLPFIFHTFLYCIPTFCCFLVHISAILFIGFSFLGSL,55600
19,MHIVVTLCYFMTYLKPRRKDIYQRVQRWLPKIWTKFWQEIKRNDSFSYVFVDK,49500
20,MHKCCLLDFLMLSTNYADVFYFHKLCIILTSFFSRLNPLLSIGLNLLLFCLLI,57000
21,MHKHFVVTLIMFFYFFFLFLLRGRCWNCTPLPTLIPSTASGVLLIVFLSYVVH,26400

row,Sequence,transcriptional activation domain activity
1,MHLLTFTIPSYRAVCKVFPFLFWLSLFLTHWFVYSFSFLQAFFSFCFTWAWCV,69900
2,MHLQGFVAWMFYILNCLAFSLRIISHWIFPIYLIWGIGLVENDYSSIDSWFLL,42100
3,MHNSRSSFLVSCFFIYFFSLLVHCEGVLILTPIPFQNHLVSILECFLFYLFLF,51600
4,MHPCTLLSFRVFAYFYLLLIPPPPLLYSYLSYTNIYSYIIVLLLLLLFYVTIV,54800
5,MHPFSPHCLSLSLLLKFSQLFNISFFLLVMHFLWLDILGFFFILFPNHFPMFG,43800
6,MHPILSCLVSIVCPIMHILLLAVLLFLNTLSRLILAFTYTTFSLFVFSVQLTP,71500
7,MHPPTHYRLLSPPLFPYIFFFQVGFLLRFFSLFFSLVSLVLILCVTFFFFFFG,57500
8,MHRATNYYFSFSALLYLVFIFLRCSLALGLFFCFMFLSFEFFCFLMVLCLFCI,33200
9,MHRELTGYFFSFFFFLFFFSFFIHISRLAVYIWDWVTSLHFFIFVILNILGSS,66700
10,MHRLHYLMCIIIGVRLTAVVGLGRHRVVYVYCFCFSDTSRKMVRQDGIKLFTA,43200
11,MHRPVCSGQSPPFFSPTSPIHFILPFLFSIFSFPHGAGVSMHIGRLVLLFFFF,59300
12,MHSDMYLHPTLLSFLSVQFSMGFLFFLCRRYLYFSEWLLVVLCVFVSRFIGFI,38400
13,MHSGPSFSCFFSVFPSFIFGLSTSSTLYIYFFFLLLDQLFVPSFFALLLLFLP,41400
14,MHSMRHAPSSFFLLFRPVIVFMAVVFSNFYLLPLLFSLLYVILCFFLYILFVS,34600
15,MHSPHNCRVSKHFVIFCFFFFFFLFCRPLPLLSNLILTLFFSSFFLLGLFGVL,64700
16,MHSSGWLWANISLLFPRLFFLTFFSYLLCDLAFRFDRLVCFLWLLFFQWSFII,52200
17,MHSVTAALRSLSLAGRRSLSTSAPRWEQAAAEAVASTSTWTPQTQRTGVLARK,14900
18,MHTHAVTRSLFLYFLLNFFFIFFLLLEGFGLLLDFSFFFVLFRLDSLSLLFVF,76000
19,MHTLLTILQTLHILVIFNTIVYPVCLFEICCFAWYFIPFAFRFLCLCFFFLFL,55000
20,MHTLVLDFDEDVVEQALRLFNLNSRALTTFLSLLVMEYGIALGPMRHRWITSP,18100
